From patent publication US20250282885A1 (VST BIO, published 2025)

B1: 8-G17-A (antibody, V domains shown)
VH: EVQLVESGGGLVKPGGSLKLSCEASGITFSNYVMSWVRQTPEKRLEWVATISDGGSYTYYPDNLKGRFTISRDNAKNNLYLQMSHLKSEDTAMYYCVRDRYDYDGRVYAMDYWGQGTSVTVSS
VL: DVVMTQTPLSLPVSLGDQASISCRSSQSLVHSNGNTYLHWYLQKPGQSPKLLIYKVSNRFSGVPDRFSGSGSGTDFTLKITRVEAEDLGVYFCSQSTHVPWTFGGGTKLEIKR
notes: PentaMice hybridoma clone, made recombinantly in CHO cells
B2: 20-H19-AB (antibody, mouse IgG1, kappa, V domains shown)
VH: EVQLVESGGGLVQPKGSLKLSCAASGFTFNIYAMHWVRQAPGKGLEWIARIGSKSSYYATYYADSVKDRFTISRDDSQSMLYLQTNNLKTEDTAMYYCVSGKGDWGQGTTLTVSS
VL: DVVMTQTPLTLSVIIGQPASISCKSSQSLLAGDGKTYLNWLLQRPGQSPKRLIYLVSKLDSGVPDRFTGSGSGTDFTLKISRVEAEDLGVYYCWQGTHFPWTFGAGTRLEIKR
notes: PentaMice hybridoma clone, made recombinantly in CHO cells; also called 20-H1-AB

Columns and labels:
human Sdc2 [1] = molecular target: T1, human Sdc2 (human, UniProt P34741 19-144, limits assumed); assay: Octet tandem binning; saturating Ab f3 19838-6N03-A
T1 construct: Antigen of the Octet tandem binning, loaded on biosensors at 100 nM; also called huSdc2; hSdc2
Procedure: (§1) These studies were performed in a tandem binning assay format with human Sdc2, used as the antigen (concentration of 100 nM). Antigen loaded biosensors were dipped in a saturating solution of antibody (25 μg/ml) for 240 seconds followed by a competing antibody at 5 μg/ml for 180 seconds. […] Since saturation is not possible to achieve saturation with these clones, they are removed in as ligands, but retained in the analyte orientation in the analysis. A table summarizing the results of epitope binning of the 18 antibodies against huSdc2 is illustrated in FIG. 30. Data is normalized, where the raw binding signal from Competing Ab for a given Saturating Ab is divided by binding in the absence a […] (“buffer”). The threshold determining the matrix color is adjustable and dependent upon Ag-Ab binding. […] Table rows are based on similar looking binding profiles. Note that the coloration/cutoff is subjective, yellow color added to represent injections with ambiguous or very weak sandwiching signals. FIG. 31 illustrates a clustergram of the epitope binning studies, which was generated from the normalized binning data by importation into the statistical computing program R (The R Project for Statistical Computing: at r-project.org) and generation of a clustergram with the pvclust package.

human Sdc2 [2] = molecular target: T1, human Sdc2; assay: Octet tandem binning; saturating Ab m6 19838-20H19-AA (marked non-binding ligand)
Procedure: as §1

human Sdc2 [3] = molecular target: T1, human Sdc2; assay: Octet tandem binning; saturating Ab f9 19838-6-E17-A
Procedure: as §1

pig Sdc2 [4] = molecular target: T2, pig Sdc2 (pig, UniProt F1S0L5 19-145); assay: Octet BLI, HIS1K sensor loaded with pigSdc2, antibody as sample; Full R2 0.997
T2 construct: also called pSdc2

human Sdc2 [5] = molecular target: T1, human Sdc2; assay: Octet tandem binning; saturating Ab f11 19838-20-H19-A
Procedure: as §1

human Sdc2 [6] = molecular target: T1, human Sdc2; assay: Octet tandem binning; Buffer in place of a saturating Ab
Procedure: as §1

human Sdc2 [7] = molecular target: T1, human Sdc2; assay: Octet tandem binning; saturating Ab m1 19838-20H19-AB
Procedure: as §1

human Sdc2 [8] = molecular target: T1, human Sdc2; assay: Octet tandem binning; saturating Ab m3 19844-R3-P1-C02 (row boxed, self-self >0.09)
Procedure: as §1

human Sdc2 [9] = molecular target: T1, human Sdc2; assay: Octet tandem binning; saturating Ab f6 19844-R3-P3-E09
Procedure: as §1

human Sdc2 [10] = molecular target: T1, human Sdc2; assay: Octet tandem binning; saturating Ab f4 19844-R3-P3-C11
Procedure: as §1

human Sdc2 [11] = molecular target: T1, human Sdc2; assay: Kd (human Sdc2), summary table of the mAbs
human Sdc2 [12] = molecular target: T1, human Sdc2; assay: Octet BLI, HIS1K sensor loaded with huSdc2, antibody as sample; Full R2 0.9968
pig Sdc2 [13] = molecular target: T2, pig Sdc2; assay: Octet BLI, heading box over the sensorgram
Procedure: (§2) In order to characterize the binding affinity and in vivo/in vitro functional ability of the twelve clones generated by the previous studies and disclosed in Table 1, a series of assays were performed on each clone. These assays measured the affinity of each antibody clone for human, pig, and mouse Sdc2 using an Octet® binding assay system. Additionally, the functional ability of each clone to inhibit VEGFA-driven permeability (see Santiago, et al. (2021) J Am Heart Assoc. 10(18):e020521) was assessed in two therapeutic settings: a “prevention” study in which three concentrations of antibody (5 μg/ml, 10 μg/ml, 15 μg/ml, 20 μg/ml, and/or 40 μg/ml depending on the study) were pre-incubated for an hour before administration of 100 ng/ml of VEGFA, and a “treatment” study in which 3 hours of pre-treatment with 100 ng/ml VEGFA were followed by treatment with antibody at 20 μg/ml or 40 μg/ml. Results are shown for 8-G17 in FIG. 8 and FIG. 9, 20-H19-AB in FIG. 10 and FIG. 11 (FIG. 12 for monkey ECs), R3-P3-C11 in FIG. 13 and FIG. 14, R4M-P3-E06 in FIG. 15 and FIG. 16, R3-P3-E09 in FIG. 17 and FIG. 18, R3-P1-C02 in FIG. 19 and FIG. 20, R3-P3-A12 in FIG. 21 and FIG. 22, R4M-P3-A12 in FIG. 23 and FIG. 24, and R4M-P1-A10 in FIG. 25 and FIG. 26.

human Sdc2 [14] = molecular target: T1, human Sdc2; assay: Octet BLI, heading box over the sensorgram
Procedure: as §2

human Sdc2 [15] = molecular target: T1, human Sdc2; assay: Octet tandem binning; saturating Ab f5 19844-R4M-P3-E06
Procedure: as §1

human Sdc2 [16] = molecular target: T1, human Sdc2; assay: Octet tandem binning; saturating Ab f8 19844-R4M-P2-C02
Procedure: as §1

[17] = molecular target: human Sdc2 on Human Umbilical Vein Endothelial Cells (HUVEC) (human, UniProt P34741 19-201); assay: cell-based or functional assay
human Sdc2 [18] = molecular target: T1, human Sdc2; assay: Octet tandem binning; saturating Ab m5 19844-R4M-P3-A12 (row boxed, self-self >0.09)
Procedure: as §1

human Sdc2 [19] = molecular target: T1, human Sdc2; assay: Octet tandem binning; saturating Ab f7 19844-R3-P3-A12
Procedure: as §1

human Sdc2 [20] = molecular target: T1, human Sdc2; assay: Octet tandem binning; saturating Ab f12 19838-6-N03-A
Procedure: as §1

human Sdc2 [21] = molecular target: T1, human Sdc2; assay: Octet tandem binning; saturating Ab m4 19844-R4M-P1-A10
Procedure: as §1

human Sdc2 [22] = molecular target: T1, human Sdc2; assay: Octet tandem binning; saturating Ab m7 19844-R3-P1-E07
Procedure: as §1

human Sdc2 [23] = molecular target: T1, human Sdc2; assay: Octet tandem binning; saturating Ab m8 19844-R4M-P1-B01 (marked non-binding ligand)
Procedure: as §1

human Sdc2 [24] = molecular target: T1, human Sdc2; assay: Octet tandem binning; saturating Ab f10 19838-10-I12-A
Procedure: as §1

human Sdc2 [25] = molecular target: T1, human Sdc2; assay: Octet tandem binning; saturating Ab m2 19838-8G17-A
Procedure: as §1

human Sdc2 [26] = molecular target: T1, human Sdc2; assay: Octet BLI, heading box over the sensorgram; remark: listed apart in the source
pig Sdc2 [27] = molecular target: T2, pig Sdc2; assay: Octet BLI, HIS1K sensor loaded with pigSdc2, antibody as sample; Full R2 0.9988
Procedure: as §2

human Sdc2 [28] = molecular target: T1, human Sdc2; assay: Octet BLI, HIS1K sensor loaded with huSdc2, antibody as sample; Full R2 0.998
pig Sdc2 [29] = molecular target: T2, pig Sdc2; assay: Octet BLI, HIS1K sensor loaded with pigSdc2, antibody as sample; Full R2 0.9988; heading box reads Pig Sdc2 (Kd~ low femtomolar)
Procedure: as §2

T1 sequence (P34741 19-144 limits assumed): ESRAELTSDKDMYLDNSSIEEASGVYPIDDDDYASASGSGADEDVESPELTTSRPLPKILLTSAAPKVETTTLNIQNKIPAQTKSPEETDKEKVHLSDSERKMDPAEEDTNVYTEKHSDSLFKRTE
human Sdc2 on Human Umbilical Vein Endothelial Cells (HUVEC), sequence (P34741 19-201 limits assumed): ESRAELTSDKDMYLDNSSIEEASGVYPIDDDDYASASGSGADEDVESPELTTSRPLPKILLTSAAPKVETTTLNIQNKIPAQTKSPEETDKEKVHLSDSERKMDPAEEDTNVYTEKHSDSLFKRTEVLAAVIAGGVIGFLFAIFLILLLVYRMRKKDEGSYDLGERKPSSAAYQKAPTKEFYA

Row | Binder | raw competing-Ab binding signal (human Sdc2 [1]) | raw competing-Ab binding signal (human Sdc2 [2]) | raw competing-Ab binding signal (human Sdc2 [3]) | raw competing-Ab binding signal (human Sdc2 [5]) | raw competing-Ab binding signal (human Sdc2 [6]) | raw competing-Ab binding signal (human Sdc2 [8]) | raw competing-Ab binding signal (human Sdc2 [9]) | raw competing-Ab binding signal (human Sdc2 [10]) | Kd (human Sdc2 [11]) | raw competing-Ab binding signal (human Sdc2 [15]) | raw competing-Ab binding signal (human Sdc2 [16]) | % Inhibition of VEGFA-induced permeability at 24hrs (20ug/ml) [17] | raw competing-Ab binding signal (human Sdc2 [18]) | raw competing-Ab binding signal (human Sdc2 [19]) | raw competing-Ab binding signal (human Sdc2 [20]) | raw competing-Ab binding signal (human Sdc2 [21]) | raw competing-Ab binding signal (human Sdc2 [22]) | raw competing-Ab binding signal (human Sdc2 [23]) | raw competing-Ab binding signal (human Sdc2 [24]) | also measured
1 | B1 | 0.0574 | 0.891 | 0.79 | 0.241 | 0.83 | 0.784 | 0.761 | 0.776 | 0.46 nM | 0.954 | 0.777 | 100% | 0.858 | 0.636 | 0.0566 | 0.805 | 0.871 | 0.827 | 0.113 | Kd (pig Sdc2 [4]): 0.455 nM; koff (pig Sdc2 [4]): 0.000195 s⁻¹; kon (pig Sdc2 [4]): 428000 M⁻¹ s⁻¹; raw competing-Ab binding signal (human Sdc2 [7]): 0.16; Kd (human Sdc2 [12]): 0.466 nM; koff (human Sdc2 [12]): 0.000235 s⁻¹; kon (human Sdc2 [12]): 505000 M⁻¹ s⁻¹; Kd (pig Sdc2 [13]): ~0.45 nM; Kd (human Sdc2 [14]): ~0.46 nM
2 | B2 | -0.0355 | 0.192 | 0.171 | 0.0503 | 0.197 | 0.0781 | -0.0179 | -0.0618 | 0.37 nM | 0.158 | 0.0763 | 90% | 0.173 | -0.102 | 0.0082 | 0.0759 | 0.214 | 0.161 | 0.0503 | raw competing-Ab binding signal (human Sdc2 [25]): -0.0786; Kd (human Sdc2 [26]): ~0.37 nM; koff (pig Sdc2 [27]): < 1e-07 s⁻¹; kon (pig Sdc2 [27]): 70700 M⁻¹ s⁻¹; Kd (human Sdc2 [28]): 0.369 nM; koff (human Sdc2 [28]): 3.18e-05 s⁻¹; kon (human Sdc2 [28]): 86200 M⁻¹ s⁻¹; Kd (pig Sdc2 [29]): < 0.001 nM
